Literature values, collected in article PMC6478124.

Biological target: HDM2 (Homo sapiens) (UniProt Q00987)
Sequence (Q00987 whole entry): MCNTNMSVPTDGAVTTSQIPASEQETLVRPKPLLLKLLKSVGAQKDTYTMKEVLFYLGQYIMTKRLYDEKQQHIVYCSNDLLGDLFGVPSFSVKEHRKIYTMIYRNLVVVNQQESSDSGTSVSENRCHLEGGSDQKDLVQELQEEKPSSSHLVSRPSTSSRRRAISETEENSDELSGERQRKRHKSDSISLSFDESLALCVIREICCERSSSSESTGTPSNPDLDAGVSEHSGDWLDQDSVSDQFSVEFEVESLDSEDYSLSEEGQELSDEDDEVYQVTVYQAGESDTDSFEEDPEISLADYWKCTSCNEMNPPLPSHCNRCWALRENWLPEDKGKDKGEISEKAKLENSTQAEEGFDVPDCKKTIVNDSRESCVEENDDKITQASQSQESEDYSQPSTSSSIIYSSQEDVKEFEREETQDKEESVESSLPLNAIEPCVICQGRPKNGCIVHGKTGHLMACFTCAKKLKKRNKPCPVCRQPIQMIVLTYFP

For “stapled p53 transactivation domain peptide transactivation domain α-helix (from UniProt P04637)”, the Kd is given as 6.76 nM.
